In patent US20060275290A1:

Molecular target: p75 neurotrophin receptor (p75^NTR) on rat embryonic (E15) spinal cord motor neurons (rat) (UniProt P07174)
Test: cell-based or functional assay

Chain of p75 neurotrophin receptor (p75^NTR) on rat embryonic (E15) spinal cord motor neurons (rat) (P07174 30-425): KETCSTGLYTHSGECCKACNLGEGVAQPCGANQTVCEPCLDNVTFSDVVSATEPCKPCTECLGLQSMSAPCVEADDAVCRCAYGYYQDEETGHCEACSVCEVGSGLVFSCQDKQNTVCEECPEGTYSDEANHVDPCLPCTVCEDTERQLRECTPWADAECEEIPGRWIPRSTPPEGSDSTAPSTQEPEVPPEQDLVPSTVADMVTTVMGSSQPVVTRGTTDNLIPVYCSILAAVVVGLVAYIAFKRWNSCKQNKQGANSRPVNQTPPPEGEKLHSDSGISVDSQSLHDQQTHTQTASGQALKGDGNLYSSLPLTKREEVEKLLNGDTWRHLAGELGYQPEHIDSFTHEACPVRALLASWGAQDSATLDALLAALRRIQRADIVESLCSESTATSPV

Substance: mouse NGF (2.5S), purified, from Harlan (from UniProt P01139 122-241) (ligand)
- share of motor neurons vulnerable to NGF in culture: 40%
